Measurements: patent publication US20260248969A1, “PEPTIDE MULTIMER PRODUCTS AND METHODS” (REGENTS OF THE UNIVERSITY OF MICHIGAN, priority 2023, published 2026)
Entries after “also recorded” stand apart in the source; their conditions may differ. No end group written: not given here.

What was measured:
human CCA-156 HCC cells = assay: Binding of Cy5.5-labeled peptides to CCA-156 HCC cells, confocal fluorescence; type: cell-based; settings: 5 μM, 5 min on ice
Procedure: HCC patient-derived cells (CCA-156) were generated from fresh, de novo tumor specimens obtained from patients undergoing liver transplant.
Fresh tissue was cut into ~1 mm^2 pieces in ice-cold DPBS. and 3-4 pieces were placed in one well of a 12-well plate. Minced tissue was cultured using Matrigel with growth media containing 10 μM ROCK inhibitor Y27632 (ATCC) and 5 μM TGF-β inhibitor (A83-01, Sigma-Aldrich) diluted to 8 mg/mL. An HCC cell line and a corresponding organoid were successfully generated. The cell line was denoted CCA-156 to reflect the specimen ID.
Approximately 10^3 CCA-156 cells were grown on the cover glass in a 24-well plate to ~90% confluence. The cells were washed with PBS twice and incubated with 5 μM of either Cy5.5-labeled peptide multimer or peptide monomer for 5 min on ice. The cells were then washed with PBS for 3X, fixed with 4% paraformaldehyde (PFA) in PBS for 15 min, washed with PBS for twice, then mounted on glass slides with ProLong Gold reagent containing DAPI (Invitrogen).

[1] = tested on: orthotopic HCC PDX tumors; assay: In vivo competition for binding (blocking before Gd-DOTA-labeled peptide multimer), MR imaging; set-up: species or system mouse; settings: unlabeled blocker given prior to labeled multimer; 0.5 hour post-injection
Procedure: In vivo competition for binding to GPC3, CD44, and EpCAM was evaluated by administering unlabeled peptide monomers prior to Gd-DOTA labeled peptide multimer. Single unlabeled peptide monomers (ALL*, WKG*, and HPD*) at a concentration of 1.5 mM in 100 μL of PBS, or a mixture of all three peptide monomers (multi-block) at a concentration of 1 mM in 100 μL of PBS each were administered 30 minutes prior to the Gd-DOTA-labeled peptide multimer, FIG. 14A. T1-weighted MR images were collected at the peak uptake time of 0.5 hour after the peptide multimer injection. The T/B ratio of MR intensity was calculated using regions of interest, and the adjacent non-tumor region with equal area of the tumor region was defined as the background.

CD44 [2] = assay: Co-localization of labeled multimer and anti-CD44 antibody binding to HCC patient-derived organoids (PDOs); set-up: species or system human; settings: merged images
Procedure: (§1) PDOs were established from human HCC specimens. These immortalized human tissues provided clinically relevant target expression levels and genetic heterogeneity seen in the HCC patient population. Short tandem repeat analysis was performed to authenticate human genomic expression and characterize genetic variations. Images collected using the candidate IRDye800-labeled multimer, AF488-labeled monoclonal antibodies specific for GPC3, CD44, and EpCAM, and merged are shown, FIG. 2A-C. Strong fluorescence intensity can be seen at the cell surface (arrows). Multimer and antibody co-localization was measured using correlation analysis.
(§2) For a co-localization assay, patient-derived organoids were recovered from Matrigel and fixed by 4% PFA for 30 min. Permeabilization and blocking were performed using 5% serum (v/v) and 1% Triton X-100 (v/v) in PBS for 3 hours at room temperature. Organoids were then incubated with 1:200 dilution of primary recombinant rabbit anti-GPC3 antibody (#ab95363, Abcam), 1:500 dilution of primary recombinant mouse anti-CD44 antibody (#3570, Cell Signaling Technology), and AF594-labeled primary anti-EpCAM (#7319, Cell Signaling Technology) at 4° C. overnight. […] Confocal fluorescence images were obtained on Leica Stellaris 5 (inverted) confocal microscope using a 63X oil-immersion objective. Fluorescence intensities were quantified using Leica LAS AF Lite software.

CD44 [3] = biological target: T1, CD44 (Homo sapiens, UniProt P16070); assay: Co-localization of labeled multimer and anti-CD44 antibody on resected human HCC PDX tumor specimen; type: binding; settings: merged image
T1 construct: from tissue; host or cells: human HCC patient-derived xenograft tumor grown orthotopically in NSG mouse liver
T1 sequence (P16070 21-742): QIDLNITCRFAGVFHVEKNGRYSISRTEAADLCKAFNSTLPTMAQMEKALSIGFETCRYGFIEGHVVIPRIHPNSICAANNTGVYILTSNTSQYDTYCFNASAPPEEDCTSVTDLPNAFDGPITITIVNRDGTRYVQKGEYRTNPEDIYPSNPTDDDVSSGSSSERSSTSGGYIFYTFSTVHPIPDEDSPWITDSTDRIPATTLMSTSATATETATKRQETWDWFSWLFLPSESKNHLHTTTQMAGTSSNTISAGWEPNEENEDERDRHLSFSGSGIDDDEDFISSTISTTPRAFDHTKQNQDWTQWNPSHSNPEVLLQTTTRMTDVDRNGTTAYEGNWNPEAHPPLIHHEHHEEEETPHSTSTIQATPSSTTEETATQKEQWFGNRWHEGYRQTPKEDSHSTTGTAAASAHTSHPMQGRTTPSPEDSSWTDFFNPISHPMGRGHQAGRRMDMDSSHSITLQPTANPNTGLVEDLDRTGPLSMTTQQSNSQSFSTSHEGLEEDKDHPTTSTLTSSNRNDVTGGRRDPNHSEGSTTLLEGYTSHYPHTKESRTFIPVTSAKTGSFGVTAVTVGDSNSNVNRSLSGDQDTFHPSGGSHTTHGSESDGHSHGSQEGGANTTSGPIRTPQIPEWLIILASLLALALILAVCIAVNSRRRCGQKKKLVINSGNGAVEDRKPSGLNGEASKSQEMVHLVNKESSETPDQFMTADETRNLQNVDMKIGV
Excerpt: (§3) After completion of in vivo imaging, specific multimer binding to the PDX HCC tumor was validated ex vivo using confocal microscopy. These studies confirmed the in vivo imaging results and expression of the expected targets ex vivo. Increased fluorescence intensity is seen at the cell surface (arrow) for the IRDye800-labeled multimer binding to HCC tumor, FIG. 8A. Adjacent sections were stained with antibodies specific for GPC3, CD44, and EpCAM, FIG. 8B-D. Co-localization of multimer and antibody binding is shown on the merged image, FIG. 8E. A correlation of ρ=0.69, 0.65, and 0.70 was measured to characterize binding co-localization by the multimer with the GPC3, CD44, and EpCAM antibodies, respectively.
(§4) Orthotopic HCC PDX tumors were resected and sectioned for immunofluorescence.

EpCAM [4] = biological target: T2, EpCAM (Homo sapiens, UniProt P16422); assay: Co-localization of labeled multimer and anti-EpCAM antibody on resected human HCC PDX tumor specimen; type: binding; settings: merged image
T2 construct: from tissue; host or cells: human HCC patient-derived xenograft tumor grown orthotopically in NSG mouse liver
T2 sequence (P16422 24-314): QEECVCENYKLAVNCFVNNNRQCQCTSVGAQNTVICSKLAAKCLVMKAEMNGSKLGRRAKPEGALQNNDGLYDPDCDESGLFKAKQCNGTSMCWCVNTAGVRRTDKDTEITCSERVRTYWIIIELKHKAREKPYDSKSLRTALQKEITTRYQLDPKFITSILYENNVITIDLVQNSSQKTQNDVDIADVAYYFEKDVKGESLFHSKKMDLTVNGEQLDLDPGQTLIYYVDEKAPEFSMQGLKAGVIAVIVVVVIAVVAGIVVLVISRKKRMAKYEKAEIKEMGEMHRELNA
Excerpt: as §3, §4

EpCAM [5] = biological target: T2, EpCAM; assay: Co-localization of labeled multimer and anti-EpCAM antibody binding to HCC patient-derived organoids (PDOs); settings: merged images
Procedure: as §1, §2

GPC3 [6] = biological target: T3, GPC3 (Homo sapiens, UniProt P51654); assay: Co-localization of labeled multimer and anti-GPC3 antibody binding to HCC patient-derived organoids (PDOs); settings: merged images
T3 construct: from tissue; host or cells: human HCC patient-derived xenograft tumor grown orthotopically in NSG mouse liver
T3 sequence (P51654 25-554): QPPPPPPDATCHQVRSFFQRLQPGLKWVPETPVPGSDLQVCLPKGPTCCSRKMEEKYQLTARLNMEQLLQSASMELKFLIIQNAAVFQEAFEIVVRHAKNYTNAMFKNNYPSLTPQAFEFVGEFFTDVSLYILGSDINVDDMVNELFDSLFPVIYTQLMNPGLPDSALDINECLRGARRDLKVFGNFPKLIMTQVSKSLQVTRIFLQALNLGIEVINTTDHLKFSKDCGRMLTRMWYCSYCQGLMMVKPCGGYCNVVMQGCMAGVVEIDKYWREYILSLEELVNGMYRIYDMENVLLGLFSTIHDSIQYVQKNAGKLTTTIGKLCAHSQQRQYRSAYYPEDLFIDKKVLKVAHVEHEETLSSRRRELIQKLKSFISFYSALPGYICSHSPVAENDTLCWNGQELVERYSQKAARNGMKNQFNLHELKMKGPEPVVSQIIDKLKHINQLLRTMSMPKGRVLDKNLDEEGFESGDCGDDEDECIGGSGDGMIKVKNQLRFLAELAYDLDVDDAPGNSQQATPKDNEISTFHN
Procedure: as §1, §2

GPC3 [7] = biological target: T3, GPC3; assay: Co-localization of labeled multimer and anti-GPC3 antibody on resected human HCC PDX tumor specimen; type: binding; settings: merged image
Excerpt: as §3, §4

human liver specimens = assay: Multimer staining of human liver specimens ex vivo (tissue microarray), fluorescence intensity and ROC
Procedure: (§5) Binding of Cy5.5-labeled peptide multimer was evaluated using human HCC specimens ex vivo. All experiments using human tissues were approved by the Michigan Medicine IRB (HUM00122873). A tissue microarray (TMA) was generated from n=120 liver specimens provided by the archived tissue bank in the Department of Pathology. Paraffin-embedded (FFPE) section slide was deparaffinized and conducted through antigen retrieval. Blocking procedure was performed with 5% goat serum for 1 hour at room temperature. The slide was first stained with the Cy5.5 labeled peptide multimer at 5 μM for 5 min at room temperature. The section was then incubated with primary antibodies using 1:200 dilution of primary recombinant rabbit anti-GPC3 antibody (#ab95363, Abcam), 1:500 dilution of primary recombinant mouse anti-CD44 antibody (#3570, Cell Signaling Technology), and AF594-labeled primary anti-EpCAM (#7319, Cell Signaling Technology) overnight at 4° C. After washing with 2% BSA in PBST, section was incubated with 1:500 dilution of AF488-labeled secondary goat anti-mouse IgG antibody (#ab150113, Abcam) and 1:500 dilution of AF532-labeled secondary goat anti-rabbit IgG antibody (#A-11029, Life Technologies) for 1 hour at room temperature, and mounted with Prolong Gold reagent containing DAPI at last (Invitrogen). The fluorescence images were collected using Leica Stellaris 5 (inverted), excitation at Aex=670 nm for the peptide multimer, and λex=488, 532, 594 nm for CD44, GPC3 and EpCAM antibody, respectively. Fluorescence intensities were quantified using Leica LAS AF Lite software. All slides were evaluated by an expert liver pathologist.

GPC3 [8] = biological target: T3, GPC3; assay: Co-localization of multimer and anti-GPC3-AF532 on human liver tissue microarray; type: binding
Procedure: as §5

CD44 [9] = biological target: T1, CD44; assay: Co-localization of multimer and anti-CD44-AF488 on human liver tissue microarray; type: binding
T1 sequence (P16070 21-222 limits assumed): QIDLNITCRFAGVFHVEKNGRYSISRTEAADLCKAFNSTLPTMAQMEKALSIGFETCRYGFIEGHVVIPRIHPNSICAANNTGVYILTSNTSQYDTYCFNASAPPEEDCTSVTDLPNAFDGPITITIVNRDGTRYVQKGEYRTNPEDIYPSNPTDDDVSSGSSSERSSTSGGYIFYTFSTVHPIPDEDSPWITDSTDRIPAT
Procedure: as §5

EpCAM [10] = biological target: T2, EpCAM; assay: Co-localization of multimer and anti-EpCAM-AF594 on human liver tissue microarray; type: binding
Procedure: as §5

ALL*-Cy5.5: Cy5.5-labeled GPC3-specific peptide monomer ALLANHEELFQT (SEQ ID NO: 1) (also: Cy5.5 label, site not given here)
binding to cell surface of CCA-156 cells (fluorescence) (human CCA-156 HCC cells): minimal signal

WKG*-Cy5.5: Cy5.5-labeled CD44-specific peptide monomer WKGWSYLWTQQA (SEQ ID NO: 6) (also: Cy5.5 label, site not given here)
binding to cell surface of CCA-156 cells (fluorescence) (human CCA-156 HCC cells): minimal signal

HPDMFTRTHSHN (EpCAM-specific peptide) [HPD*]
T/B ratio of Gd-DOTA-labeled peptide multimer after blocking [1]: reduced

ALLANHEELFQT (GPC3-specific peptide) [ALL*]
T/B ratio of Gd-DOTA-labeled peptide multimer after blocking [1]: reduced

IRDye800-labeled multimer: GPC3-, CD44- and EpCAM-specific peptide monomers arranged via tri-lysine linker and PEG3 linkers, labeled with IRDye800 (peptide 1 ALLANHEELFQT; peptide 2 WKGWSYLWTQQA; peptide 3 HPDMFTRTHSHN; not fully specified; also: monomers arranged via tri-lysine linker and PEG3 linkers, IRDye800 label, site not given here)
correlation of co-localization, multimer and CD44 antibody (CD44 [2]): 0.80
Pearson's correlation coefficient, multimer with CD44 antibody (CD44 [3]): 0.65
Pearson's correlation coefficient, multimer with EpCAM antibody (EpCAM [4]): 0.70
correlation of co-localization, multimer and EpCAM antibody (EpCAM [5]): 0.75
correlation of co-localization, multimer and GPC3 antibody (GPC3 [6]): 0.74
Pearson's correlation coefficient, multimer with GPC3 antibody (GPC3 [7]): 0.69

WKGWSYLWTQQA (CD44-specific peptide) [WKG*]
T/B ratio of Gd-DOTA-labeled peptide multimer after blocking [1]: reduced

Cy5.5-labeled peptide multimer: peptide multimer of GPC3-, CD44- and EpCAM-specific peptides labeled with Cy5.5 (peptide 1 ALLANHEELFQT; peptide 2 WKGWSYLWTQQA; peptide 3 HPDMFTRTHSHN; not fully specified; also: peptide multimer, linkage not given here, Cy5.5 label, site not given here)
quantified fluorescence intensity, mean±SD (human liver specimens; HCC): 8.4±1.0
quantified fluorescence intensity, mean±SD (human liver specimens; adenoma): 5.8±0.4
quantified fluorescence intensity, mean±SD (human liver specimens; cirrhosis): 6.4+0.7
fluorescence intensity for HCC versus cirrhosis, adenoma, and normal (human liver specimens; n=120 specimens): significantly greater
quantified fluorescence intensity, mean±SD (human liver specimens; normal): 6.4±0.4
correlation of co-localization, multimer and CD44 antibody (CD44 [2]): 0.80
Pearson's correlation coefficient, multimer and GPC3 antibody (GPC3 [8]; HCC): 0.76
Pearson's correlation coefficient, multimer and GPC3 antibody (GPC3 [8]; adenoma): 0.82
Pearson's correlation coefficient, multimer and GPC3 antibody (GPC3 [8]; cirrhosis): 0.69
Pearson's correlation coefficient, multimer and GPC3 antibody (GPC3 [8]; normal liver): 0.74
Pearson's correlation coefficient, multimer and CD44 antibody (CD44 [9]; HCC): 0.70
Pearson's correlation coefficient, multimer and CD44 antibody (CD44 [9]; adenoma): 0.74
Pearson's correlation coefficient, multimer and CD44 antibody (CD44 [9]; cirrhosis): 0.60
Pearson's correlation coefficient, multimer and CD44 antibody (CD44 [9]; normal liver): 0.69
Pearson's correlation coefficient, multimer with CD44 antibody (CD44 [3]): 0.65
Pearson's correlation coefficient, multimer with EpCAM antibody (EpCAM [4]): 0.70
correlation of co-localization, multimer and EpCAM antibody (EpCAM [5]): 0.75
binding to cell surface of CCA-156 cells (fluorescence) (human CCA-156 HCC cells): Strong fluorescence signal; also recorded: strong binding
correlation of co-localization, multimer and GPC3 antibody (GPC3 [6]): 0.74
Pearson's correlation coefficient, multimer with GPC3 antibody (GPC3 [7]): 0.69
Pearson's correlation coefficient, multimer and EpCAM antibody (EpCAM [10]; HCC): 0.81
Pearson's correlation coefficient, multimer and EpCAM antibody (EpCAM [10]; adenoma): 0.83
Pearson's correlation coefficient, multimer and EpCAM antibody (EpCAM [10]; cirrhosis): 0.66
Pearson's correlation coefficient, multimer and EpCAM antibody (EpCAM [10]; normal liver): 0.83

HPD*-Cy5.5: Cy5.5-labeled EpCAM-specific peptide monomer HPDMFTRTHSHN (SEQ ID NO: 7) (also: Cy5.5 label, site not given here)
binding to cell surface of CCA-156 cells (fluorescence) (human CCA-156 HCC cells): minimal signal
